{"source": "paper PMC10691696", "about": "“ZmEREB92 plays a negative role in seed germination by regulating ethylene signaling and starch mobilization in maize”", "molecular_target": "ZmEREB92 (Zea mays, UniProt B6SIZ8 1-233)", "sequence (B6SIZ8 entry or part of it)": "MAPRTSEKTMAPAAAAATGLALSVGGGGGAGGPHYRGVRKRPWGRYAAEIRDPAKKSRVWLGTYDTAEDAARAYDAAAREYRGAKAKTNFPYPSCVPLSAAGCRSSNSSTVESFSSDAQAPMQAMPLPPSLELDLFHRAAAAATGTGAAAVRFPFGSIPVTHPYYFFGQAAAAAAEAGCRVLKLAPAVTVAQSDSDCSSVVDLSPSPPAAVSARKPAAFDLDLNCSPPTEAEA", "assay": "EMSA; 200x unlabeled probe used as competitor; EMSA: 0.2 pmol biotin probe with ZmEREB92-His, 30 min at 28 °C, 6.5% native PAGE, chemiluminescence kit (Beyotime); buffer, salt and pH not given", "details": "protein: recombinant; tags: His-tag (C-terminal as stated; pET32a vector); label: biotin; blunt", "data": [{"binder": "pAMYa2-C (dsDNA) DNA 1: TCGTCGTCTCGCCGCCGCCGCCGCCGCCGCAACGGGTCT DNA 2: AGACCCGTTGCGGCGGCGGCGGCGGCGGCGAGACGACGA", "values": [{"measurement": "binding result", "value": "binds"}]}, {"binder": "pAMYa2-A (dsDNA) DNA 1: TCAAGAATTTAAGGCGGCGAAAGCCGAC DNA 2: GTCGGCTTTCGCCGCCTTAAATTCTTGA", "values": [{"measurement": "binding result", "value": "binds"}]}]}
